Assay results from PMC3656048, “SAP97 Controls the Trafficking and Resensitization of the Beta-1-Adrenergic Receptor through Its PDZ2 and I3 Domains” (PLoS ONE, 2013).

Biological target: T1, GST-PDZ2 of SAP97 (rat)
T1 chain: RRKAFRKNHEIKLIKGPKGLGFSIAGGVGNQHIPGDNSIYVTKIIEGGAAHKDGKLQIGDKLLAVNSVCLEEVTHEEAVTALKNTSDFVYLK
Experiment: pull-down; solubilized membranes of HEK-293 cells expressing 1.2 pmoles of FLAG ß1-AR per mg protein mixed with increasing concentrations of GST-PDZ2; GST pull-downs probed with anti-ß1-AR antibody, optical densities, estimated EC50, n = 3
Details: one partner purified

B1: full length WT FLAG ß1-AR (receptor)
chain: not shown
notes: human ß1-adrenergic receptor, wild type; also called FLAG-tagged WT ß1-AR; WT ß1-AR; not shown: FLAG, N-terminal, kept
For B1, the EC50 was ~1000 nM.
